Measurements reported in patent US20250215083A1 (JIANGSU HENGRUI PHARMACEUTICALS, published 2025).
Positions count from the first letter of the chain named.

B1: F2-2 (bispecific antibody)
heavy 1: not shown
light 1: DVVLTQSPLSLPVTLGQPASISCKSSQSLLHSSGKTYLNWLLQRPGQSPRRLIYLVSKLDSGVPDRFSGSGSGTDFTLKISRVEAEDVGVYYCAQGTHFPRTFGGGTKVEIKRTVAAPSVFIFPPSDEQLKSGTASVVCLLNNFYPREAKVQWKVDNALQSGNSQESVTEQDSKDSTYSLSSTLTLSKADYEKHKVYACEVTHQGLSSPVTKSFNRGEC
heavy 2: not shown
light 2: not shown
B2: F2-3 (bispecific antibody)
heavy 1: not shown
light 1: DIQMTQSPSSVSASVGDRVTITCKASQNVGSNVAWYQQKPGKAPKALIYSASYRYSGVPSRFSGSGSGTDFTLTISSLQPEDFATYYCHQYNSYPPTFGQGTKLEIKRTVAAPSVFIFPPSDEQLKSGTASVVCLLNNFYPREAKVQWKVDNALQSGNSQESVTEQDSKDSTYSLSSTLTLSKADYEKHKVYACEVTHQGLSSPVTKSFNRGEC
heavy 2: not shown
light 2: not shown
B3: F4-7 (bispecific antibody)
heavy 1: not shown
light 1: not shown
heavy 2: EVQLVQSGAEVKKPGASVKVSCKASGYSFTGYTMNWVRQAPGKRPEWMGLINPYTGGTRNNQKFKDRVTLTVDKSASTAYMELSSLRSEDTAVYYCTRWGLRLAMDYWGQGTTVTVSSASTKGPSVFPLAPSSKSTSGGTAALGCLVKDYFPEPVTVSWNSGALTSGVHTFPAVLQSSGLYSLSSVVTVPSSSLGTQTYICNVNHKPSNTKVDKKVEPKSCDKTHTCPPCPAPEAAGGPSVFLFPPKPKDTLMISRTPEVTCVVVDVSHEDPEVKFNWYVDGVEVHNAKTKPREEQYNSTYRVVSVLTVLHQDWLNGKEYKCKVSNKALPAPIEKTISKAKGQPREPQVCTLPPSRDELTKNQVSLSCAVKGFYPSDIAVEWESNGQPENNYKTTPPVLDSDGSFFLVSKLTVDKSRWQQGNVFSCSVMHEALHNHYTQKSLSLSPGK
light 2: B2 light 1
B4: PL-1 (bispecific antibody)
chain 1: not shown
chain 2: DIVLTQSPASLAVSPGQRATITCRASESVSIHGTHLMHWYQQKPGQPPKLLIYAASKLESGVPARFSGSGSGTDFTLTINPVEAEDTANYYCQQSFEDPLTFGQGTKLEIKGGGGSGIPPKIECLPIDISIDEGKVLTVASAFTGEPTPEVTWSTGGRKIHSQEQGRFHIENTDDLTTLIIKDVQKQDGGLYTLTLRNEFGSDSATVNIHIRSI
chain 3: not shown
chain 4: not shown
B5: PL-2 (bispecific antibody)
chain 1: not shown
chain 2: B4 chain 2 with L176S, I180T
chain 3: not shown
chain 4: not shown
B6: PL-3 (bispecific antibody)
chain 1: not shown
chain 2: B4 chain 2 with V136C, L176S, I180T
chain 3: not shown
chain 4: not shown
B7: PL-4 (bispecific antibody)
chain 1: not shown
chain 2: B4 chain 2 with A142C, L176S, I180T
chain 3: not shown
chain 4: not shown
B8: PL-5 (bispecific antibody)
chain 1: not shown
chain 2: B4 chain 2 with L176S, I180T
chain 3: not shown
chain 4: not shown
B9: PL-6 (bispecific antibody)
chain 1: not shown
chain 2: B4 chain 2 with V136C, L176S, I180T
chain 3: not shown
chain 4: not shown
B10: PL-7 (bispecific antibody)
chain 1: not shown
chain 2: B4 chain 2 with A142C, L176S, I180T
chain 3: not shown
chain 4: not shown
B11: PL-8 (bispecific antibody)
chain 1: not shown
chain 2: B4 chain 2 with L176S, I180T
chain 3: not shown
chain 4: not shown
B12: PL-9 (bispecific antibody)
chain 1: not shown
chain 2: B4 chain 2 with V136C, L176S, I180T
chain 3: not shown
chain 4: not shown
B13: PL-10 (bispecific antibody)
chain 1: not shown
chain 2: B4 chain 2 with A142C, L176S, I180T
chain 3: not shown
chain 4: not shown
B14: PL-11 (bispecific antibody)
chain 1: not shown
chain 2: B4 chain 2 with G112R, G113T, G114V, G115A, L176S, I180T
chain 3: not shown
chain 4: not shown
B15: PL-12 (bispecific antibody)
chain 1: not shown
chain 2: B4 chain 2 with G112R, G113T, G114V, G115A, V136C, L176S, I180T
chain 3: not shown
chain 4: not shown
B16: PL-13 (bispecific antibody)
chain 1: not shown
chain 2: B4 chain 2 with G112R, G113T, G114V, G115A, A142C, L176S, I180T
chain 3: not shown
chain 4: not shown
B17: PL-14 (bispecific antibody)
chain 1: not shown
chain 2: B4 chain 2 with G112R, G113T, G114V, G115A, L176S, I180T
chain 3: not shown
chain 4: not shown
B18: PL-15 (bispecific antibody)
chain 1: not shown
chain 2: B4 chain 2 with G112R, G113T, G114V, G115A, V136C, L176S, I180T
chain 3: not shown
chain 4: not shown
B19: PL-17 (bispecific antibody)
chain 1: not shown
chain 2: B4 chain 2 with G112R, G113T, G114V, G115A, L176S, I180T
chain 3: not shown
chain 4: not shown
B20: PL-18 (bispecific antibody)
chain 1: not shown
chain 2: B4 chain 2 with G112R, G113T, G114V, G115A, V136C, L176S, I180T
chain 3: not shown
chain 4: not shown
B21: PL-19 (bispecific antibody)
chain 1: not shown
chain 2: B4 chain 2 with G112R, G113T, G114V, G115A, A142C, L176S, I180T
chain 3: not shown
chain 4: not shown
B22: HJ-3 (bispecific antibody)
chain 1: not shown
chain 2: DIQMTQSPSSVSASVGDRVTITCRASQDIANYLSWYQQKPGKSPKLLIYGTSNLEVGVPSRFSGSRSGTDFTLTISSLQPEDFATYYCLQDKEFPRTFGGGTKVEIKGGGGSSGAPRFLTRPLAFVVSVGKDATLSSQIVGNPTPQVSWEKDKQPVTAGARFRLAQDGDLYRLKILDLQLSDSGQYVSRARNAIGEAFACLGLQVDAEA
chain 3: EVQLVQSGAEVKKPGSSVKVSCKASGYTFSNYLIEWVRQAPGQGLEWIGVIDPGVGDTNYNENFKGRATLTADKSTSTAYIELSSLRSEDTAVYYCAREDNTGTAFDYWGQGTTVTVSSASTKGPSVFPLAPSSKSTSGGTAALGCLVKDYFPEPVTVSWNSGALTSGVHTFPAVLQSSGLYSLSSVVTVPSSSLGTQTYICNVNHKPSNTKVDKKVEPKSCDKTHTCPPCPAPEAAGGPSVFLFPPKPKDTLMISRTPEVTCVVVDVSHEDPEVKFNWYVDGVEVHNAKTKPREEQYNSTYRVVSVLTVLHQDWLNGKEYKCKVSNKALPAPIEKTISKAKGQPREPQVCTLPPSREEMTKNQVSLSCAVKGFYPSDIAVEWESNGQPENNYKTTPPVLDSDGSFFLVSKLTVDKSRWQQGNVFSCSVMHEALHNHYTQKSLSLSPGKDYKDDDDK
chain 4: SIVMTQTPLSLSVTPGQPASISCKASQSVSSDVTWYLQKPGQSPQLLIYYVSEHYTGVPDRFSGSGYGTDFTLKISRVEAEDVGVYYCQQHHRFPLTFGQGTKLEIKRTVAAPSVFIFPPSDEQLKSGTASVVCLLNNFYPREAKVQWKVDNALQSGNSQESVTEQDSKDSTYSLSSTLTLSKADYEKHKVYACEVTHQGLSSPVTKSFNRGEC
B23: HJ-5 (bispecific antibody)
chain 1: not shown
chain 2: B22 chain 2 with L123K, F125S, T144F, A160V, I194H
chain 3: EVQLVQSGAEVKKPGSSVKVSCKASGYTFSNYLIEWVRQAPGQGLEWIGVIDPGVGDTNYNENFKGRATLTADKSTSTAYIELSSLRSEDTAVYYCAREDNTGTAFDYWGQGTTVTVSSASTKGPSVFPLAPSSKSTSGGTAALGCLVKDYFPEPVTVSWNSGALTSGVHTFPAVLQSSGLYSLSSVVTVPSSSLGTQTYICNVNHKPSNTKVDKKVEPKSCDKTHTCPPCPAPEAAGGPSVFLFPPKPKDTLMISRTPEVTCVVVDVSHEDPEVKFNWYVDGVEVHNAKTKPREEQYNSTYRVVSVLTVLHQDWLNGKEYKCKVSNKALPAPIEKTISKAKGQPREPQVCTLPPSREEMTKNQVSLSCAVKGFYPSDIAVEWESNGQPENNYKTTPPVLDSDGSFFLVSKLTVDKSRWQQGNVFSCSVMHEALHNHYTQKSLSLSPGK
chain 4: B22 chain 4
B24: HJ-6 (bispecific antibody)
chain 1: not shown
chain 2: B22 chain 2 with R121C, L123K, F125S, T144F, A160V, I194H
chain 3: B23 chain 3
chain 4: B22 chain 4
B25: HJ-7 (bispecific antibody)
chain 1: not shown
chain 2: B22 chain 2 with L123K, F125S, S137C, T144F, A160V, S188C, I194H
chain 3: B23 chain 3
chain 4: B22 chain 4
B26: HJ-8 (bispecific antibody)
chain 1: not shown
chain 2: B22 chain 2 with G108R, G109T, G110V, G111A, L123K, F125S, T144F, A160V, I194H
chain 3: B23 chain 3
chain 4: B22 chain 4
B27: HJ-9 (bispecific antibody)
chain 1: not shown
chain 2: B22 chain 2 with G108R, G109T, G110V, G111A, R121C, L123K, F125S, T144F, A160V, I194H
chain 3: B23 chain 3
chain 4: B22 chain 4
B28: HJ-10 (bispecific antibody)
chain 1: not shown
chain 2: DIQMTQSPSSVSASVGDRVTITCRASQDIANYLSWYQQKPGKSPKLLIYGTSNLEVGVPSRFSGSRSGTDFTLTISSLQPEDFATYYCLQDKEFPRTFGGGTKVEIKRTVASSGAPRFLTRPKASVVSVGKDATLSCQIVGNPFPQVSWEKDKQPVTAGVRFRLAQDGDLYRLKILDLQLSDSGQYVCRARNAHGEAFACLGLQVDAEA
chain 3: B23 chain 3
chain 4: B22 chain 4
B29: HJ-11 (bispecific antibody)
chain 1: not shown
chain 2: B28 chain 2 with A115C
chain 3: B23 chain 3
chain 4: B22 chain 4

target: human GPRC5D (human, UniProt Q9NZD1 1-345); assay: cell-based or functional assay
Sequence (Q9NZD1 whole entry): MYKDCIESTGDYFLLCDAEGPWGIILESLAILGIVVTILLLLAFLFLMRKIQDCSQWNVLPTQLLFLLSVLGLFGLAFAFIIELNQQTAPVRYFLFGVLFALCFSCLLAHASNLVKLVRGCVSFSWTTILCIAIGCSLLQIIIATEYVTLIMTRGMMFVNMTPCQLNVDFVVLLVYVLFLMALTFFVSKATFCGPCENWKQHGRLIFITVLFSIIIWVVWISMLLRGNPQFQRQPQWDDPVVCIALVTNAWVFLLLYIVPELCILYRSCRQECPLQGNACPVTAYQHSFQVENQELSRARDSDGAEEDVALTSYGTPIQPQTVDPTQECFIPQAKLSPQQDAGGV

Row | Binder | EC50 ratio (relative to JNJ-64407564), cytotoxic activity against NCI-H929 | Lysis rate %, cytotoxic activity against NCI-H929
1 | B1 | 0.26 | 64.3%
2 | B2 | 0.08 | 61.5%
3 | B3 | 0.16 | 68.3%

target: T1, hPDL1 (human, UniProt Q9NZQ7 19-238); assay: ELISA per WO2021139758 Test Example 4
T1 construct: purchased from Sino biology
T1 sequence (Q9NZQ7 19-238 limits assumed): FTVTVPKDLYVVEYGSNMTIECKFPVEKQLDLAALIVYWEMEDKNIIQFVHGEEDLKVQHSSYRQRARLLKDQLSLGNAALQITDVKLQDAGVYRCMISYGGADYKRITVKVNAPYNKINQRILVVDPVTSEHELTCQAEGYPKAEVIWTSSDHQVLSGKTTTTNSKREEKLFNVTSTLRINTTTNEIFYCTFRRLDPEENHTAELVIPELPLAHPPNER

Row | Binder | EC50
4 | B4 | 1.6 nM
5 | B5 | 0.5 nM
6 | B6 | 0.6 nM
7 | B7 | 0.7 nM
8 | B8 | 0.7 nM
9 | B9 | 0.8 nM
10 | B10 | 0.5 nM
11 | B11 | 1.4 nM
12 | B12 | 0.6 nM
13 | B13 | 0.6 nM
14 | B14 | 0.6 nM
15 | B15 | 0.5 nM
16 | B16 | 0.5 nM
17 | B17 | 1.3 nM
18 | B18 | 1.4 nM
19 | B19 | 1.4 nM
20 | B20 | 1.6 nM
21 | B21 | 1.6 nM

target: T2, hCTLA4 (human, UniProt P16410 36-161); assay: ELISA per WO2021139758 Test Example 4
T2 construct: purchased from Sino biology
T2 sequence (P16410 36-161 limits assumed): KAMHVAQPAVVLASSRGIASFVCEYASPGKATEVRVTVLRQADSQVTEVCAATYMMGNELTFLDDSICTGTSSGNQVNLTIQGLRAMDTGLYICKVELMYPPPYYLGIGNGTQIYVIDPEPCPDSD

Row | Binder | EC50
22 | B4 | 16.5 nM
23 | B5 | 8 nM
24 | B6 | 7.9 nM
25 | B7 | 6.5 nM
26 | B8 | 6.7 nM
27 | B9 | 5.3 nM
28 | B10 | 7.3 nM
29 | B11 | 14.5 nM
30 | B12 | 5.5 nM
31 | B13 | 6.9 nM
32 | B14 | 5.6 nM
33 | B15 | 8 nM
34 | B16 | 4.4 nM
35 | B17 | 6 nM
36 | B18 | 3.2 nM
37 | B19 | 6.2 nM
38 | B20 | 6.7 nM
39 | B21 | 6.5 nM

target: hIL5 (human, UniProt P05113 20-134); assay: ELISA per WO2021139758 Test Example 4

Row | Binder | EC50
40 | B22 | 17.4 nM
41 | B23 | 16 nM
42 | B24 | 37 nM
43 | B25 | 17.7 nM
44 | B26 | 18.7 nM
45 | B27 | 10.9 nM
46 | B28 | 20.8 nM
47 | B29 | 9.46 nM

target: hTSLP (human, UniProt Q969D9 29-159); assay: ELISA per WO2021139758 Test Example 4

Row | Binder | EC50
48 | B22 | 3.23 nM
49 | B23 | 2.64 nM
50 | B24 | 2.88 nM
51 | B25 | 2.18 nM
52 | B26 | 3.33 nM
53 | B27 | 3.18 nM
54 | B28 | 3.17 nM
55 | B29 | 3 nM
